Results on six molecules are retold here after patent US20240410901A1.

Numbering of substitutions follows the chain as printed. In names and notes the source's numbering stands.

The target of assay [1] is actin filaments of D. melanogaster S2 cells (lamellipodial actin ring, patches, filopodia) (D. melanogaster). The experiment in a line: TIRF imaging of a fixed S2 cell expressing mCherry-Lifeact stained with Alexa Fluor 488 phalloidin; panel a, upper cell.
Assay [2] has the same target. The experiment in a line: TIRF imaging of a fixed S2 cell expressing mCherry-Lifeact stained with Alexa Fluor 488 phalloidin; panel a, lower cell.
Assay [3] has the same target. The assay can be described thus: TIRF imaging of S2 cells before and after blue light.
In assay [4] the target is F-actin (G-actin polymerized, filaments stabilized with phalloidin). The assay can be described thus: cosedimentation with 0.5 µM phalloidin-stabilized F-actin, SDS-PAGE of the pellet, hyperbolic fit.
Assay [5] deals with actin filaments of D. melanogaster S2 cells (lamellipodial actin ring, patches, filopodia) (D. melanogaster). The assay can be described thus: TIRF imaging of a repeatedly excited S2 cell; actin labeling ratio over time, panel f, recovery after the 1st excitation (black exponential fit).
The target is the same in assay [6]. The assay can be described thus: TIRF imaging of a live S2 cell; actin labeling ratio over time, panel B, recovery after the 2nd blue-light excitation.
Assay [7] shares this target. The experiment in a line: cell-based or functional assay.
Assay [8] has the same target. The experiment in a line: TIRF imaging of a repeatedly excited S2 cell; actin labeling ratio over time, panel f, recovery after the 4th excitation.
For assay [9] the target is unchanged. The experiment in a line: TIRF images of an S2 cell before and after blue-light excitation, printed in panel b.
Assay [10] shares this target. The assay can be described thus: TIRF imaging of a live S2 cell; actin labeling ratio over time, panel B, recovery after the 3rd blue-light excitation.
Assay [11] shares this target. The assay can be described thus: TIRF image of the same S2 cell after blue-light excitation, panel b; outer and inner rings hand traced.
Assay [12] shares this target. The assay can be described thus: TIRF imaging of a live S2 cell; actin labeling ratio over time, panel B, recovery after the 4th blue-light excitation.
Assay [13] shares this target. The experiment in a line: TIRF imaging of a repeatedly excited S2 cell; actin labeling ratio over time, panel f, recovery after the 2nd excitation.
The target is the same in assay [14]. The assay can be described thus: TIRF imaging of an S2 cell expressing mCherry-LILAC, fixed under blue light and stained with Alexa Fluor 488 phalloidin; panel b, upper cell.
Assay [15] shares this target. The experiment in a line: TIRF image of an S2 cell before blue-light excitation, panel a; outer and inner rings hand traced.
Assay [16] has the same target. The experiment in a line: TIRF imaging of an S2 cell expressing mCherry-LILAC, fixed under blue light and stained with Alexa Fluor 488 phalloidin; panel b, lower cell.
For assay [17] the target is unchanged. The assay can be described thus: TIRF imaging of a repeatedly excited S2 cell; actin labeling ratio over time, panel f, recovery after the 3rd excitation.
Assay [18] shares this target. The assay can be described thus: TIRF imaging of a live S2 cell; actin labeling ratio over time, panel B, recovery after the 1st blue-light excitation (black exponential fit drawn on this one).

For the molecule “mCherry-Lifeact expressed in Drosophila S2 cells (pMT-mCherry-Lifeact vector) (from UniProt Q08641 1-17)”, the values for the r (Pearson's correlation coefficient with the phalloidin image) in assay [1] and in [2] were 0.83 and 0.89, respectively. Besides, the switching ratio (fold change of the actin labeling ratio, post/pre-excitation) in assay [3] was determined as 1.

For “mCherry-Lifeact, expressed in E. coli and purified (6×His-mCherry-TEV-Lifeact from the pET21-mCherry-Lifeact vector) (from UniProt Q08641 1-17)”, the Kd (usually the constant that tells how readily two partners part at equilibrium) in [4] stood at 3.9 µM.

B1: mCherry-LILAC expressed in Drosophila S2 cells (pMT vector) (designed binder, not shown: large carriers)
chain: GGSGGSGGSGEFLATTLERIEKNFVITDPRLPDNPIIFASDSFLQLTEYSREEILGRNCRFLQGPETDRATVRKIRDAIDNQTEVTVQLINYTKSGKKFWNLFHLQPMRDQKGDVQYFIGVQLDGTEHVRDAAEREAVMLAKKTAEEIDEAAMGVADLIKKFESISKEE
B1: the τ (time constant of the decay of the actin labeling ratio after excitation) was determined as 71 s in assay [5]; 73 s in [6]; 59 s in [8]; 61 s in [10]; 59 s in assay [12]; 73 s in assay [13]. In addition, the τ (time constant of the decay of the actin labeling ratio after excitation) in assay [17] worked out at 61 s; in assay [18] it was 71 s. For the same molecule, in assay [7], the dark state recovery time constant, from actin labeling ratio traces was 63 s. In [9], the ASR (actin switching ratio, ALR post / ALR pre) is 2.02. Moreover, the figures for the ALR (actin labeling ratio, intensity outer / intensity inner) in assay [11] and in assay [15] were 0.79 and 0.39, respectively. The r (Pearson's correlation coefficient with the phalloidin image) turned out to be 0.6 in [14] and 0.62 in assay [16]. The switching ratio (fold change of the actin labeling ratio, post/pre-excitation) in assay [3] turned out to be 1.6.

B2: mCherry-LILAC T406A/T407A expressed in Drosophila S2 cells (pMT vector) (designed binder, not shown: large carriers)
chain: B1 chain with T15A, T16A
B2: in [7], the dark state recovery time constant, from actin labeling ratio traces was determined as 50 s.

B3: mCherry-LILAC I539E expressed in Drosophila S2 cells (pMT vector) (designed binder, not shown: large carriers)
chain: B1 chain with I148E
Regarding B3, in assay [3], the switching ratio (fold change of the actin labeling ratio, post/pre-excitation) came to 1.

B4: mCherry-LILAC I539E, expressed in E. coli and purified (6×His-mCherry-TEV-LILAC with I539E, pET21) (designed binder, not shown: large carriers; small tags and cut ends)
chain: HHHHHHGEFLATTLERIEKNFVITDPRLPDNPIIFASDSFLQLTEYSREEILGRNCRFLQGPETDRATVRKIRDAIDNQTEVTVQLINYTKSGKKFWNLFHLQPMRDQKGDVQYFIGVQLDGTEHVRDAAEREAVMLAKKTAEEEDEAAMGVADLIKKFESISKEE
Take B4: in assay [4], the Kd is 3.4 µM.
